B1: 5984 (antibody, V domains shown)
VH: QLQLQESGPGLVKPSETLSLTCTVSGGSISSSSYYWGWIRQPPGKGLEWIGNIYYSGSTYYNPSLKGRVTISVDTSKNQFSLKLSSVTAADTAVYYCARLGHGYNYFDLWGRGTLVTVSS
VL: EIVLTQSPATLSLSPGERATLSCRASQSVSSYLAWFQQKPGQAPRLLIYDASNRATGIPARFSGSGSGTDFTLTISSLEPEDFAVYYCQQVYVWPPRTFGGGTKVEIK
notes: anti-BACE1 IgG
B2: 5985 (antibody, V domains shown)
VH: B1 VH with G67S
VL: B1 VL
notes: anti-BACE1 IgG
B3: 5986 (antibody, V domains shown)
VH: B1 VH with N52Q, Y60F, G67S, N105S
VL: B1 VL
notes: anti-BACE1 IgG
B4: 5982 (antibody, V domains shown)
VH: B1 VH with G67S, N105S
VL: B1 VL
notes: anti-BACE1 IgG
B5: 5933 (antibody, V domains shown)
VH: B1 VH with S31R, S32G, N52M, Y60W, G67S, L100V, Y104V, N105S
VL: B1 VL with F36Y, D50G, N53K, V93T
notes: anti-BACE1 IgG
B6: 5536 (antibody, V domains shown)
VH: QVQLVQSGAEVKKPGSSVKVSCKASGGTFSSYAISWVRQAPGQGLEWMGSIIPIFGTANYAQKFQGRVTITADESTSTAYMELSSLRSEDTAVYYCARSGGTKYGMLDVWGQGTMVTVSS
VL: EIVMTQSPATLSVSPGERATLSCRASQSVGSNLAWYQQKPGQAPRLLIYGASTRATGIPARFSGSGSGTEFTLTISSLQSEDFAVYYCQQSYLWPPRTFGGGTKVEIK
notes: anti-BACE1 IgG
B7: 5747 (antibody, V domains shown)
VH: B1 VH with G67S, N105S
VL: B1 VL with F36Y, V93L
notes: anti-BACE1 IgG
B8: 5878 (antibody, V domains shown)
VH: EVQLLESGGGLVQPGGSLRLSCAASGFTFSSYAMSWVRQAPGKGLEWVSAISGSGISTPYADSVKGRFTISRDNSKNTLYLQMNSLRAEDTAVYYCAKGAGHGSYVKGWFDPWGQGTLVTVSS
VL: EIVLTQSPATLSLSPGERATLSCRASQSVSSYLAWYQQKPGQAPRLLIYDASNRATGIPARFSGSGSGTDFTLTISSLEPEDFAVYYCQQSVNFPFTFGGGTKVEIK
notes: anti-BACE1 IgG
B9: 5876 (antibody, V domains shown)
VH: EVQLLESGGGLVQPGGSLRLSCAASGFTFSSRAMGWVRQAPGKGLEWVSATSGSGGSIYYADSVKGRFTISRDNSKNTLYLQMNSLRAEDTAVYYCAKGGSQWLYAPGSWFDPWGQGTLVTVSS
VL: B8 VL with Q89V, S91R, V92S, F96W
notes: anti-BACE1 IgG
B10: 5880 (antibody, V domains shown)
VH: B8 VH with S30G, S35T
VL: B8 VL
notes: anti-BACE1 IgG
B11: 5881 (antibody, V domains shown)
VH: B8 VH with S31K
VL: B8 VL
notes: anti-BACE1 IgG
B12: 5875 (antibody, V domains shown)
VH: B9 VH with S31T, R32Y, I58T
VL: B8 VL with Q89V, S91R, V92S, F96W
notes: anti-BACE1 IgG
B13: 5874 (antibody, V domains shown)
VH: B9 VH with S30G, R32Y, G35S, I58T, N84D
VL: B8 VL with Q89V, S91R, V92S, F96W
notes: anti-BACE1 IgG
B14: hu7A4.v5 (antibody, V domains shown)
VH: EVQLVQSGAEVKKPGASVKVSCKASGYTFTDYAMHWVRQAPGQGLEWMGGISTYFGRTNYNQKFKGRVTMTRDTSISTAYMELSRLRSDDTAVYYCARGLSGNYVMDYWGQGTTVTVSS
VL: DIVMTQSPDSLAVSLGERATINCRASESVDSYGNSFMHWYQQKPGQPPKLLIYRASNLESGIPDRFSGSGSGTDFTLTISSLQAEDVAVYYCQQSNEGPPTFGQGTKLEIK
notes: IgG

Numbering of substitutions follows the chain as printed.

T3 sequence (P56818 46-501): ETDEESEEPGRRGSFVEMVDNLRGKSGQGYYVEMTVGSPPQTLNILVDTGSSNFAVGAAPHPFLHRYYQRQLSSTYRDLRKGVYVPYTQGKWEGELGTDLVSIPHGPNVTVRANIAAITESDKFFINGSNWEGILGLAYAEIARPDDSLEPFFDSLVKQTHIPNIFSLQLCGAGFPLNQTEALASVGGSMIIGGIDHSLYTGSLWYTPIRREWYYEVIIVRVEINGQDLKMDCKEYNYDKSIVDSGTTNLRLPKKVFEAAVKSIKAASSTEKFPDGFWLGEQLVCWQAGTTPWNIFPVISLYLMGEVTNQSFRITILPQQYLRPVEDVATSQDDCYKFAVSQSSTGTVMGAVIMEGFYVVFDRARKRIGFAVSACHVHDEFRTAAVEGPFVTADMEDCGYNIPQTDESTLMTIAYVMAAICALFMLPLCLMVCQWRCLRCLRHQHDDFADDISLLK

For one test, the target named is T1, murine BACE1 ECD.
T1 construct: analyte of the Octet assay (200 nM) and enzyme of the first short substrate assay
T1 sequence (single chain, as listed by the source limits assumed): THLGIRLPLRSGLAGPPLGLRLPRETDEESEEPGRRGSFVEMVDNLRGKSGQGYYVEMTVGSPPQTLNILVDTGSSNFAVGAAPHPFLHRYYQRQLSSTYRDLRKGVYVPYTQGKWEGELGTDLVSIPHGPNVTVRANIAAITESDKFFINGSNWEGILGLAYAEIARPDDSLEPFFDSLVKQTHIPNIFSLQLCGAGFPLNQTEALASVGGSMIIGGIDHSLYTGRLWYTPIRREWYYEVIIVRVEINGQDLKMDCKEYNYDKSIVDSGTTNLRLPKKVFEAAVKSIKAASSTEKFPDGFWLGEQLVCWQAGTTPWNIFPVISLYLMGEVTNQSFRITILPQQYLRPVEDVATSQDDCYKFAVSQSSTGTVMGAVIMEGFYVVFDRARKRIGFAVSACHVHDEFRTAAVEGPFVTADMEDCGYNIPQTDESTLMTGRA
The test can be described thus: Octet, pH 5.0.
B1: binding was characterised by a dissociation constant (Kd) of 0.37 nM.

For B2, the affinity, expressed as Kd, was 0.81 nM.

In turn, B3 gave a Kd of less than 0.27 nM.

Consider B4, for which the Kd came out at 2.3 nM.

For B5, the Kd was less than 0.24 nM.

In another test the target is T2, human BACE1 ECD.
T2 construct: analyte of the Octet assay (200 nM) and enzyme of the first short substrate assay; also called human BACE1 extracellular domain
T2 sequence (single chain, as listed by the source limits assumed): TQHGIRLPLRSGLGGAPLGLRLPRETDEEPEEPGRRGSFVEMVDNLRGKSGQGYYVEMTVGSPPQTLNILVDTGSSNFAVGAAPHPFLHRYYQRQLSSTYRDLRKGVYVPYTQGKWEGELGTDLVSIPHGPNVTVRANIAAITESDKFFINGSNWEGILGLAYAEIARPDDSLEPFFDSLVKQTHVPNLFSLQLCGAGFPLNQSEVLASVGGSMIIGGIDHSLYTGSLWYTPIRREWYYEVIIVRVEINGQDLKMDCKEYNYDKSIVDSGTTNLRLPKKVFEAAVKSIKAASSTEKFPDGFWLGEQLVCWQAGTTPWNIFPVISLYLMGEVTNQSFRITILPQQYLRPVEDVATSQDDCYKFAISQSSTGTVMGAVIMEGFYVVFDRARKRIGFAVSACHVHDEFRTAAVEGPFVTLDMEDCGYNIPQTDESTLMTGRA
The test can be described thus: Octet, pH 5.0.
For B1, the Kd was 0.34 nM.

Molecule B2 showed a Kd of 0.68 nM.

In the case of B3, the Kd was less than 0.24 nM.

In turn, B4 came in with a Kd of 2.3 nM.

The molecule B5 yielded a Kd of less than 0.2 nM.

For another test, the target named is T1, murine BACE1 ECD. The experiment in a line: Octet, pH 7.5.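 Also: antibodies captured on anti-human capture biosensor tips, dissociation followed in PBS with BSA buffer, kinetics fitted with a one-to-one binding model.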
In turn, B1 gave a Kd of 0.36 nM. This lies in the sub-nanomolar range.

In turn, B2 returned a Kd of 0.65 nM.

B3 had a Kd of 0.54 nM.

In turn, B4 had a Kd of 2 nM. Against the preceding molecule, the Kd is about 3.7-fold higher.

In turn, B5 had a dissociation constant Kd of less than 0.24 nM.

The next test deals with T2, human BACE1 ECD. The experiment in a line: Octet, pH 7.5.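 Also: antibodies captured on anti-human capture biosensor tips, dissociation followed in PBS with BSA buffer, kinetics fitted with a one-to-one binding model.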
B1: the Kd worked out at 0.43 nM.

In turn, B2 returned a Kd of 0.87 nM. Compared with the last molecule, the Kd is about 2-fold higher.

B3 had a Kd of 0.78 nM.

B4 returned a Kd of 2.9 nM. This Kd is about 3.7-fold higher than that of the molecule before.

With B5, the Kd stood at 0.32 nM.

The next test concerns the target T3, BACE1 in primary mouse cortical neurons (mouse, UniProt P56818 46-501). The experiment in a line: cell-based or functional assay.
Regarding B6, the “IC50, Abeta x-40 in mouse cortical neurons” value amounted to 42.4 nM and the “maximal % inhibition of Abeta x-40” value is 84%.

Regarding B7, the “IC50, Abeta x-40 in mouse cortical neurons” value stood at 25.6 nM and the “maximal % inhibition of Abeta x-40” value is 74%.

Another test has as its target T1, murine BACE1 ECD. The experiment in a line: cell-based or functional assay.
For the molecule B8, the “% inhibition of BACE1 activity, short FRET substrate” value (“% inhibition of BACE1 activity” below) was 98%.

With B9, the “% inhibition of BACE1 activity” value stood at 46%.

For B10, the “% inhibition of BACE1 activity” value stood at 97%.

As for B11, the “% inhibition of BACE1 activity” value came to 98%.

Regarding B12, the “% inhibition of BACE1 activity” value turned out to be 39%.

Consider B13, for which the “% inhibition of BACE1 activity” value is 33%.

As to B6, the “% inhibition of BACE1 activity” value turned out to be 30%.

The next test deals with T2, human BACE1 ECD. The experiment in a line: cell-based or functional assay.
Turning to B8, the “% inhibition of BACE1 activity” value was 99%.

For B9, the “% inhibition of BACE1 activity” value came out at 58%.

Regarding B10, the “% inhibition of BACE1 activity” value turned out to be 99%.

As to B11, the “% inhibition of BACE1 activity” value was 97%.

Consider B12, for which the “% inhibition of BACE1 activity” value is 51%.

Consider B13, for which the “% inhibition of BACE1 activity” value is 37%.

As to B6, the “% inhibition of BACE1 activity” value was 32%.

For another test, the target named is BACE1 (HTRF long substrate and FRET short substrate assays of Example 9D). The test can be described thus: cell-based or functional assay.
With B8, the “EC50, FRET short substrate” value was found to be 24.3 nM and the “EC50, HTRF long substrate” value was found to be 164 nM.

Turning to B9, the “EC50, FRET short substrate” value worked out at 0.703 nM and the “EC50, HTRF long substrate” value was 1.67 nM.

On to B10, for which the “EC50, FRET short substrate” value stood at 7.88 nM and the “EC50, HTRF long substrate” value was 171 nM.

Turning to B11, the “EC50, FRET short substrate” value was 5.93 nM and the “EC50, HTRF long substrate” value was found to be 33.7 nM.

Turning to B12, the “EC50, FRET short substrate” value stood at 1.99 nM and the “EC50, HTRF long substrate” value stood at 4.9 nM.

For B13, the “EC50, FRET short substrate” value came out at 0.798 nM and the “EC50, HTRF long substrate” value was determined as 3.97 nM.

In the case of B6, the “EC50, HTRF long substrate” value worked out at 0.578 nM.

For the next test, the target named is T4, human TfR extracellular domain with N-terminal His tag (human, UniProt P02786 89-760).
T4 construct: Biotinylated in some assays; also called huTfR; HuTfR
T4 sequence (P02786 89-760 G142S): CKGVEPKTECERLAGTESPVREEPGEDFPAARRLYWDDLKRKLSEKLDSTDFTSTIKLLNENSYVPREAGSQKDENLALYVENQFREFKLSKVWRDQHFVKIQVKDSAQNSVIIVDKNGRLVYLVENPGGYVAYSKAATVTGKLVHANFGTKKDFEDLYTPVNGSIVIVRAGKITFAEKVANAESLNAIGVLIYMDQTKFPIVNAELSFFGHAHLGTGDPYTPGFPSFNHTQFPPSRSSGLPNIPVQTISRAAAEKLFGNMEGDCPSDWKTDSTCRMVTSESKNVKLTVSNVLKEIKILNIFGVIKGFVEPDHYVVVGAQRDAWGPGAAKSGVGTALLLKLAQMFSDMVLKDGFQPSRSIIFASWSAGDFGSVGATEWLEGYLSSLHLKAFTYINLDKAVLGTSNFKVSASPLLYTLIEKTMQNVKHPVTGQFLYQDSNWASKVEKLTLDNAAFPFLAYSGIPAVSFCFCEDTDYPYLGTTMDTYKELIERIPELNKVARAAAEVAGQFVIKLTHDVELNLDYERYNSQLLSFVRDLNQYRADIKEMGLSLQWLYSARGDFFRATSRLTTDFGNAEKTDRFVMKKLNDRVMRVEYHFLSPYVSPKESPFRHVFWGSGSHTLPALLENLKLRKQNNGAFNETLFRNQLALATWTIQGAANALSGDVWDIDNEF
The test can be described thus: SPR, IgG.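 Also: His-tagged TfR captured via immobilized anti-His antibody on a CM5 chip, antibody injected in 3-fold dilution series by single cycle kinetics, 1:1 Langmuir or steady-state fit.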
In turn, B14 came in with a Kd of 0.364 nM.

For a further test, the target named is T5, human BACE1 (R&D Systems) (human, UniProt P56817).
T5 construct: recombinant, commercial (R&D Systems)
T5 sequence (P56817 22-457 limits assumed): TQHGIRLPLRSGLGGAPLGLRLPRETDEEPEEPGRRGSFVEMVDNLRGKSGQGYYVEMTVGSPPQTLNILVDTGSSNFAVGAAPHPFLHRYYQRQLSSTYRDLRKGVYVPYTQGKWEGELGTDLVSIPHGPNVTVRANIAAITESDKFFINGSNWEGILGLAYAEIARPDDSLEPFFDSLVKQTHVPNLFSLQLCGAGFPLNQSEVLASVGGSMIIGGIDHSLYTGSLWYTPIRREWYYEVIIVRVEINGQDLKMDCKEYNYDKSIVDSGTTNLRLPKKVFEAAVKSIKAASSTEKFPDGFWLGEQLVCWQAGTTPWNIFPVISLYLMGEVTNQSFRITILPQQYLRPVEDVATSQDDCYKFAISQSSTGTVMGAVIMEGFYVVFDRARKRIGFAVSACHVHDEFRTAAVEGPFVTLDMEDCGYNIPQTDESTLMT
The test can be described thus: SPR (Biacore).
B8: binding was characterised by a dissociation constant (Kd) of 36 nM.

Consider B9, for which the Kd is 0.72 nM.

B10 had a Kd of 65.5 nM.

Consider B11, for which the Kd was 7.92 nM.

B12 had a Kd of 1.94 nM.

The molecule B13 displayed a Kd of 1.3 nM. The Kd values of the last two molecules are within 1.5-fold of each other.

A further test deals with T1, murine BACE1 ECD. The experiment in a line: Octet, pH 5.0. The source holds these as a separate data set.
Turning to B8, the Kd is 14 nM.

B9: the Kd was 43 nM.

B10 displayed a Kd of 6.1 nM.

In turn, B11 displayed a Kd of 15 nM.

B12 returned a Kd of 120 nM.

For B13, the Kd was 200 nM. This Kd is about 1.7-fold higher than that of the molecule before.

As for B6, the Kd came to 6.8 nM.

Consider B7, for which the Kd was 3.1 nM. Compared with the last molecule, the Kd is about 2.2-fold lower.

In another test the target is T2, human BACE1 ECD. The experiment in a line: Octet, pH 5.0. The source holds these as a separate data set.
Regarding B8, the Kd came to 11 nM.

As to B9, the Kd was determined as 31 nM.

With B10, binding was characterised by a dissociation constant (Kd) of 4.5 nM.

In the case of B11, the Kd turned out to be 11 nM.

Take B12: the affinity, expressed as Kd, was 50 nM.

Regarding B6, binding was put at a Kd of 17 nM.

For the molecule B7, the equilibrium dissociation constant (Kd) came to 3 nM.

The next test concerns the target T3, BACE1 in primary mouse cortical neurons. The test can be described thus: cell-based or functional assay. The source holds these as a separate data set.
Consider B1, for which the “IC50, Abeta x-40 in mouse cortical neurons” value came out at 22.6 nM and the “maximal % inhibition of Abeta x-40” value was 70%.

Consider B2, for which the “maximal % inhibition of Abeta x-40” value stood at 73%.

As for B3, the “IC50, Abeta x-40 in mouse cortical neurons” value was 5.42 nM and the “maximal % inhibition of Abeta x-40” value is 67%.

In the case of B4, the “IC50, Abeta x-40 in mouse cortical neurons” value came out at 27.3 nM and the “maximal % inhibition of Abeta x-40” value stood at 71%.

Regarding B5, the “IC50, Abeta x-40 in mouse cortical neurons” value was determined as 3.6 nM and the “maximal % inhibition of Abeta x-40” value was found to be 67%.

The target of another test is T1, murine BACE1 ECD. The experiment in a line: Octet, pH 7.5.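 Also: antibodies captured on anti-human capture biosensor tips, dissociation followed in PBS with BSA buffer, kinetics fitted with a one-to-one binding model.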 The source holds these as a separate data set.
Turning to B8, binding was put at a Kd of 2.7 nM.

The molecule B9 came in with a Kd of 9.7 nM.

As to B10, the Kd is 1.2 nM.

For B11, the affinity, expressed as Kd, was 2.4 nM. Against the preceding molecule, the Kd is about 2-fold higher.

B12 returned a Kd of 22 nM.

B13 showed a Kd of 22 nM.

As for B6, the Kd is 22 nM.

B7 came in with a Kd of 2.2 nM.

For another test, the target named is T2, human BACE1 ECD. The experiment in a line: Octet, pH 7.5.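 Also: antibodies captured on anti-human capture biosensor tips, dissociation followed in PBS with BSA buffer, kinetics fitted with a one-to-one binding model.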 The source holds these as a separate data set.
For the molecule B8, the Kd worked out at 2.5 nM.

Consider B9, for which the Kd is 9.4 nM. This Kd lies about 3.8-fold higher than the previous one.

Molecule B10 showed a Kd of 1 nM. This Kd lies about 9.4-fold lower than the previous one.

Turning to B11, the Kd was found to be 2.6 nM. This Kd is about 2.6-fold higher than that of the molecule before.

B12 showed a Kd of 32 nM.

B13 displayed a dissociation constant (Kd) of 33 nM.

In turn, B6 had a Kd of 15 nM. This Kd is about 2.2-fold lower than that of the molecule before.

For the molecule B7, the Kd was found to be 3.3 nM.
